Test results as given in doi:10.1101/2021.10.29.466484, “Clamping of DNA shuts the condensin neck gate” (bioRxiv, 2021).

T1: Smc4 (S. cerevisiae, UniProt Q12267 1-1418)
T1 construct: Smc4, SMC subunit of budding yeast (S. cerevisiae) condensin, wild type; Only the head domain and proximal coiled coil are resolved in the maps; also called SMC4-3xStrepII
T1 sequence: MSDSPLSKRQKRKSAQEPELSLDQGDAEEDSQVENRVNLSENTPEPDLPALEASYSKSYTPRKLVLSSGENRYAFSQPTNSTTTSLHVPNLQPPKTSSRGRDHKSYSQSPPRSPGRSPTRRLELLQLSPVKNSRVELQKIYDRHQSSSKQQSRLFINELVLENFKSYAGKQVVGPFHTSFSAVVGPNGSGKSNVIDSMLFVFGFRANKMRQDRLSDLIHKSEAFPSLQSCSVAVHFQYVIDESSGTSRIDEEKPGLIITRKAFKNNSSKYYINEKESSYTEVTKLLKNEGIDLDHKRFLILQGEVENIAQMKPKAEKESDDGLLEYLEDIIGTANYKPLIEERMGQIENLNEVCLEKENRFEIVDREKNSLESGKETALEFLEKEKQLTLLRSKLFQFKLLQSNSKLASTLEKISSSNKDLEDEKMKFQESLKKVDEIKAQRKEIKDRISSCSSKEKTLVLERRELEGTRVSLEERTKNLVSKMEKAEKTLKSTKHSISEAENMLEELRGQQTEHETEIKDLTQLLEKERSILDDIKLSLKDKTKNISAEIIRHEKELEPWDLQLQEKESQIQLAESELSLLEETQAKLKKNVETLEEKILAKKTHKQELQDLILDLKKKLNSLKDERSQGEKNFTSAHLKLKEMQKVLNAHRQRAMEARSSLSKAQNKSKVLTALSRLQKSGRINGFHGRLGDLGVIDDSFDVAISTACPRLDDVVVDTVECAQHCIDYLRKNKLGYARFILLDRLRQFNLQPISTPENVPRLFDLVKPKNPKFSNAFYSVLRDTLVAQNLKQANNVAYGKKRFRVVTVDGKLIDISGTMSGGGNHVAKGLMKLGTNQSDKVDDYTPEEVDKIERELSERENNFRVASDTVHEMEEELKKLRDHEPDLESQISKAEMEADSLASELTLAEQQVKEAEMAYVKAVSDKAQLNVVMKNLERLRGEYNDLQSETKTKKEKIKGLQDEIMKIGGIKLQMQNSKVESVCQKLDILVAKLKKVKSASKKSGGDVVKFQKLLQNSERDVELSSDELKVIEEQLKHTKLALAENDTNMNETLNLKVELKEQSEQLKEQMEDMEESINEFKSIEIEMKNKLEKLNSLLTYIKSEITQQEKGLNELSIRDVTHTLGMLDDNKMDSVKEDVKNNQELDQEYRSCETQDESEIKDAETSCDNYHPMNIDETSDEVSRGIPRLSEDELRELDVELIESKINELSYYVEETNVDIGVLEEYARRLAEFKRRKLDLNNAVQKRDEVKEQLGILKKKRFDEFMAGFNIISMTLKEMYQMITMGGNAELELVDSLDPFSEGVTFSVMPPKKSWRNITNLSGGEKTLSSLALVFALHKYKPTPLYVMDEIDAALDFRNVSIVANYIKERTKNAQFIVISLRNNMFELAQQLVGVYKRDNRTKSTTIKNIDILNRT

B1: Smc2 (natural protein, S. cerevisiae)
chain: MKVEELIIDGFKSYATRTVITDWDPQFNAITGLNGSGKSNILDAICFVLGIASMSTVRASSLQDLIYKRGQAGVTKASVTIVFDNTDKSNSPIGFTNSPQISVTRQVVLGGTSKYLINGHRAPQQSVLQLFQSVQLNINNPNFLIMQGKITKVLNMKPSEILSLIEEAAGTKMFEDRREKAERTMSKKETKLQENRTLLTEEIEPKLEKLRNEKRMFLEFQSTQTDLEKTERIVVSYEYYNIKHKHTSIRETLENGETRMKMLNEFVKKTSEEIDSLNEDVEEIKLQKEKELHKEGTISKLENKENGLLNEISRLKTSLSIKVENLNDTTEKSKALESEIASSSAKLIEKKSAYANTEKDYKMVQEQLSKQRDLYKRKEELVSTLTTGISSTGAADGGYNAQLAKAKTELNEVSLAIKKSSMKMELLKKELLTIEPKLKEATKDNELNVKHVKQCQETCDKLRARLVEYGFDPSRIKDLKQREDKLKSHYYQTCKNSEYLKRRVTNLEFNYTKPYPNFEASFVHGVVGQLFQIDNDNIRYATALQTCAGGRLFNVVVQDSQTATQLLERGRLRKRVTIIPLDKIYTRPISSQVLDLAKKIAPGKVELAINLIRFDESITKAMEFIFGNSLICEDPETAKKITFHPKIRARSITLQGDVYDPEGTLSGGSRNTSESLLVDIQKYNQIQKQIETIQADLNHVTEELQTQYATSQKTKTIQSDLNLSLHKLDLAKRNLDANPSSQIIARNEEILRDIGECENEIKTKQMSLKKCQEEVSTIEKDMKEYDSDKGSKLNELKKELKLLAKELEEQESESERKYDLFQNLELETEQLSSELDSNKTLLHNHLKSIESLKLENSDLEGKIRGVEDDLVTVQTELNEEKKRLMDIDDELNELETLIKKKQDEKKSSELELQKLVHDLNKYKSNTNNMEKIIEDLRQKHEFLEDFDLVRNIVKQNEGIDLDTYRERSKQLNEKFQELRKKVNPNIMNMIENVEKKEAALKTMIKTIEKDKMKIQETISKLNEYKRETLVKTWEKVTLDFGNIFADLLPNSFAKLVPCEGKDVTQGLEVKVKLGNIWKESLIELSGGQRSLIALSLIMALLQFRPAPMYILDEVDAALDLSHTQNIGHLIKTRFKGSQFIVVSLKEGMFANANRVFRTRFQDGTSVVSIM
notes: Smc2, SMC subunit of budding yeast (S. cerevisiae) condensin, wild type; Expressed from pGAL10-SMC2 together with the other subunits; Only the head domain and proximal coiled coil are resolved in the maps
B2: Ycs4 (natural protein, S. cerevisiae)
chain: MSGFSLSEYLTKFQTTDRESYPRLQDPSRELNVIIDQLAVSPEQIDASPDSLEALIDLCHDFPHLTPKLQTQLSYLISSSLSNLSKDIKANLSSNVNFTEIGGLIPQWKRHLEEYGYLIQVLLTFLQDELHKVSSQSTNLNRSAKNSKNDSANVELFKRDCNQMENLLESITKLLEINLSKIFQTTPEKDLFIGLFTRPLFVLLEIEPVTKVSSLKMFIQRILAMCVKNHGQSSSIQSSLMTNLTYFLHLSVFNAELLKLLNDEYNYPQLTEDILKEISTRVFNAKDTTGPKAISNFLIKLSELSPGIMLRQMNLVITLLNNSSITLRCSVVEACGNIVAELAQDPQTMEHYKQQIAVLIELLEERFQDSNPYVRTKAIQGCSKICDLSSKFNKSKAKFTSLAVRSLQDRSSLVRRNSVKLLSKLLLKHPFKAIHGSQLRLSEWEEYLKGSESQLNSTLKKVESQETLNDTIERSLIEEEVEQDEGQCRTELEGSFNKSAELSRIENEVENINATNTSVLMKLKLMIVYYKDAISFIKEIHKSIELISNLLFSKNRNEVLESMDFLVLADAFDIELSEFGIKKMLHLVWMKGTNDEGTSISVHLIECYKQLFLTAPDSCNMQEKAAHIAKNLINLSIGASIADLASLEQLLGMMYEQKLIDQHVINILWAIYNSASKASMQKEQNVNNRDSEKGFSKEQIHGSIIILGMLSLADNEIALKGLESLLNIGLGAVGLKDLTLCRYSCLALERMVPKRSTIITKAINQELEDVAVKKLYAIIINYTKDNEYYPMCEQALSALFTISSKPDILATDLIREKTMMTFGKPEEEDSILSLEQSSRVVSLSQLLFIVGQVAIKTLVYLEKCEAEFKKRKIEAETRNGKVKNQGADVTNTTQDNGGDKELEMIGGTNEDDFTDAIQFVKENELLFGEKSILGKFCPIVEEIVSNSSRFSDPMLQRTATLCLEKLMCLSSKYCEKSLPLLITVMEKSPDPTIRSNAVLGLGDMAVCFNNLVDENTDYLYRRLHDENLMVQRTCLMTVTFLILAGQVKVKGQLGEMAKCLDNPDQGISDMCRLFFTELASKDNAIYNGFIDIFSNLSSDDLLGKESFKKIIKFLLTFIDKERHQKQLNEKLVGRLRKCETQKQWDDIAFVLNNLPYKNEDVTALLEQGFKVVSAKE
notes: Ycs4, HAWK subunit of budding yeast (S. cerevisiae) condensin, wild type

Assays:
Details in all cases: both partners purified
Ycs4 = target: B2; assay: cryo-EM structure; condensin pentamer (Smc2, Smc4, Brn1, Ycs4, Ycg1) with 80 bp dsDNA, ADP and BeF3; separate maps of the head module and of Ycg1-DNA from one dataset
Smc4 [1] = target: T1, Smc4; assay: cryo-EM structure; condensin tetramer (Smc2, Smc4, Brn1, Ycs4) with 80 bp dsDNA, 5 mM ADP, 1 mM BeSO4, 10 mM NaF; TNT buffer (30 mM Tris/HCl, 60 mM NaCl, 1 mM TCEP, 2 mM MgCl2, pH 7.5); head module, Forms I and II
Smc4 [2] = target: T1, Smc4; assay: cryo-EM structure; condensin pentamer (Smc2, Smc4, Brn1, Ycs4, Ycg1) with 80 bp dsDNA, ADP and BeF3; separate maps of the head module and of Ycg1-DNA from one dataset

binding result (Ycs4)	binding result (Smc4 [1])	binding result (Smc4 [2])	Binder
binds	binds		B1
		binds	B2
